Measured values: patent publication US20150203555A1

T1: Vascular endothelial growth factor (VEGF165), P15692
T1 chain: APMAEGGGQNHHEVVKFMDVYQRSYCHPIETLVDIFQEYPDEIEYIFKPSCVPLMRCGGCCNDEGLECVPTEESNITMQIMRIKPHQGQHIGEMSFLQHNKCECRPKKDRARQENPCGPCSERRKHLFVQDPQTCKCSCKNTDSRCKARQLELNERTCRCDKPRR


Biological target: T1, Vascular endothelial growth factor …
Assay: competition FP, tracer BODIPY-v114*ΔNT

| Binder | Ki |
| --- | --- |
| VDNKFNKEMHNAYAIEIALLPNLNDQQFHAFIWSLIDD (modifications not checked) [Z-VEGF (1-38)] | > 100 µM |
| VDNKFNKEQHNARAIEAALDPNLNDQQFHAKIWSIIDD (modifications not checked) [α-VEGF-1] | > 100 µM |
